Experimental data published in IntAct's records for PubMed 29039417.

B1: Protein PTHB1 (Homo sapiens), Q3SYG4 (parent)
chain: MSLFKARDWWSTILGDKEEFDQGCLCLANVDNSGNGQDKIIVGSFMGYLRIFSPHPAKTGDGAQAEDLLLEVDLRDPVLQVEVGKFVSGTEMLHLAVLHSRKLCVYSVSGTLGNVEHGNQCQMKLMYEHNLQRTACNMTYGSFGGVKGRDLICIQSMDGMLMVFEQESYAFGRFLPGFLLPGPLAYSSRTDSFLTVSSCQQVESYKYQVLAFATDADKRQETEQQKLGSGKRLVVDWTLNIGEQALDICIVSFNQSASSVFVLGERNFFCLKDNGQIRFMKKLDWSPSCFLPYCSVSEGTINTLIGNHNNMLHIYQDVTLKWATQLPHIPVAVRVGCLHDLKGVIVTLSDDGHLQCSYLGTDPSLFQAPNVQSRELNYDELDVEMKELQKIIKDVNKSQGVWPMTEREDDLNVSVVVSPNFDSVSQATDVEVGTDLVPSVTVKVTLQNRVILQKAKLSVYVQPPLELTCDQFTFEFMTPDLTRTVSFSVYLKRSYTPSELEGNAVVSYSRPTDRNPDGIPRVIQCKFRLPLKLICLPGQPSKTASHKITIDTNKSPVSLLSLFPGFASQSDDDQVNVMGFHFLGGARITVLASKTSQRYRIQSEQFEDLWLITNELILRLQEYFEKQGVKDFACSFSGSIPLQEYFELIDHHFELRINGEKLEELLSERAVQFRAIQRRLLARFKDKTPAPLQHLDTLLDGTYKQVIALADAVEENQGNLFQSFTRLKSATHLVILLIALWQKLSADQVAILEAAFLPLQEDTQELGWEETVDAAISHLLKTCLSKSSKEQALNLNSQLNIPKDTSQLKKHITLLCDRLSKGGRLCLSTDAAAPQTMVMPGGCTTIPESDLEERSVEQDSTELFTNHRHLTAETPRPEVSPLQGVSE
partner: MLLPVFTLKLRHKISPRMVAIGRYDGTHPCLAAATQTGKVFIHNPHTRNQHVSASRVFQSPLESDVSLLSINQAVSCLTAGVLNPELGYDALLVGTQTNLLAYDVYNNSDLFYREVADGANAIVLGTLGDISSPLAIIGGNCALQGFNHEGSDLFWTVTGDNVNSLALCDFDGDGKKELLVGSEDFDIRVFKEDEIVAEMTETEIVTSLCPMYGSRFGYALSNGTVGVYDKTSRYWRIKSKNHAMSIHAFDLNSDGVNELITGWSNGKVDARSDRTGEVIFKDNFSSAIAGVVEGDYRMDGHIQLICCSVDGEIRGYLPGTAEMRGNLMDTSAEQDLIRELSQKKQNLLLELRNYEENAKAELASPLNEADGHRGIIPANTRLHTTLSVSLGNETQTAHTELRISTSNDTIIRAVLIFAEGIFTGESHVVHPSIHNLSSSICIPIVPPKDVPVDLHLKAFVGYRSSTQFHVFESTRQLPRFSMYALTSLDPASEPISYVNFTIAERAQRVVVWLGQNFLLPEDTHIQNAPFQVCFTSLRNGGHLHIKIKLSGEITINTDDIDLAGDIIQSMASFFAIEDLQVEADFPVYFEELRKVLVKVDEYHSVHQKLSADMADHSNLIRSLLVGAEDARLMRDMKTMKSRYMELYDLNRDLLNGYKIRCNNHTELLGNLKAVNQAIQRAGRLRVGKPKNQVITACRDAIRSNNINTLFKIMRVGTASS

Variants of: B1
Conditions: with bbs2_human BBS2, Q9BXC9

Variant	effect of a mutation on the interaction
Y508A	with no effect
Y508E	with no effect
Y508K	with no effect
S486R	disrupting interaction strength
S486E	with no effect
S486A	with no effect
S486K	with no effect
S486N	disrupting interaction strength
I523K	with no effect
I523E	with no effect
I523A	with no effect
R510A	with no effect
R510E	with no effect
R510K	with no effect
V522E	with no effect
V522K	with no effect
V522A	with no effect
Y490A	with no effect
Y490K	with no effect
Y490E	with no effect
I519K	with no effect
I519A	with no effect
I519E	with no effect
S498A	with no effect

Variant	effect of a mutation on the interaction
S498L	disrupting interaction strength
S498E	with no effect
S498K	with no effect
Y495A	with no effect
Y495K	with no effect
Y495E	with no effect
R521K	with no effect
R521A	with no effect
R521E	with no effect
R521T	disrupting interaction strength
S494A	with no effect
S494K	with no effect
S494E	with no effect
E499K	with no effect
E499A	with no effect
R493A	with no effect
R493K	with no effect
R493E	with no effect
G502A	with no effect
G502E	with no effect
G502K	with no effect
V506A	with no effect
V506E	with no effect
V506K	with no effect

Variant	effect of a mutation on the interaction
L500K	with no effect
L500A	with no effect
L500E	with no effect
L491K	with no effect
L491A	with no effect
L491E	with no effect
Q524A	with no effect
Q524E	with no effect
G518A	with no effect
G518E	with no effect
G518K	with no effect
A504E	with no effect
A504K	with no effect
P497A	with no effect
P497E	with no effect
P497K	with no effect
P520E	with no effect
P520K	with no effect
P520A	with no effect
N503A	with no effect
N503K	with no effect
N503E	with no effect
E501K	with no effect
E501A	with no effect

Variant	effect of a mutation on the interaction
S488K	with no effect
S488A	with no effect
S488E	with no effect
T512E	with no effect
T512K	with no effect
T512A	with no effect
N515A	with no effect
N515K	with no effect
N515E	with no effect
F487K	with no effect
F487A	with no effect
F487E	with no effect
V489A	with no effect
V489K	with no effect
V489E	with no effect
P516A	with no effect
P516E	with no effect
P516K	with no effect
P511K	with no effect
P511E	with no effect
P511A	with no effect
S509K	with no effect
S509E	with no effect
S509A	with no effect

Variant	effect of a mutation on the interaction
S507A	with no effect
S507K	with no effect
S507E	with no effect
D513E	with no effect
D513K	with no effect
D513A	with no effect
V505A	with no effect
V505E	with no effect
V505K	with no effect
R514E	with no effect
R514A	with no effect
R514K	with no effect
T496K	with no effect
T496A	with no effect
T496E	with no effect
V485K	with no effect
V485E	with no effect
V485A	with no effect
K492E	with no effect
K492A	with no effect
D517E	with no effect
D517A	with no effect
D517K	with no effect

The next lines start with the values.

effect of a mutation on the interaction	Variant
with no effect	K526E
with no effect	K526A
with no effect	K542A
with no effect	K542E
with no effect	H546A
with no effect	H546K
with no effect	H546E
with no effect	P530K
disrupting interaction strength	P530L
with no effect	P530A
with no effect	P530E
with no effect	L529K
with no effect	L529A
with no effect	L529E
with no effect	L536E
with no effect	L536A
with no effect	L536K
with no effect	G538E
with no effect	G538K
with no effect	G538A
with no effect	L531E
with no effect	L531K

effect of a mutation on the interaction	Variant
with no effect	L531A
with no effect	K532E
with no effect	K532A
with no effect	Q524K
with no effect	F527K
with no effect	F527E
with no effect	F527A
with no effect	S541A
with no effect	S541K
with no effect	S541E
with no effect	P537E
with no effect	P537A
with no effect	P537K
with no effect	S545K
with no effect	S545A
with no effect	S545E
with no effect	T543E
with no effect	T543A
with no effect	T543K
with no effect	C535K
with no effect	C535E
with no effect	C535A

effect of a mutation on the interaction	Variant
with no effect	P540E
with no effect	P540K
with no effect	P540A
with no effect	C525A
with no effect	C525E
with no effect	C525K
with no effect	R528K
with no effect	R528E
with no effect	R528A
with no effect	A544K
with no effect	A544E
with no effect	I534A
with no effect	I534K
with no effect	I534E
with no effect	L533E
with no effect	L533A
with no effect	L533K
with no effect	K547A
with no effect	K547E
with no effect	Q539K
with no effect	Q539A
with no effect	Q539E
